Data taken from patent US20200147230A1.

Tests used:
[1] = molecular target: murine nucleolin (in Colon 26 / C26 murine colon carcinoma cells) (murine) (UniProt P09405); experiment: fixed cell assay on fixed, permeabilised murine C26 cells; negative control
[2] = molecular target: human nucleolin (human) (UniProt P19338); experiment: fixed cell assay on fixed, permeabilised Raji cells; negative control, ambiguous fit
Chain of UniProt P19338 (P19338 2-710 limits assumed): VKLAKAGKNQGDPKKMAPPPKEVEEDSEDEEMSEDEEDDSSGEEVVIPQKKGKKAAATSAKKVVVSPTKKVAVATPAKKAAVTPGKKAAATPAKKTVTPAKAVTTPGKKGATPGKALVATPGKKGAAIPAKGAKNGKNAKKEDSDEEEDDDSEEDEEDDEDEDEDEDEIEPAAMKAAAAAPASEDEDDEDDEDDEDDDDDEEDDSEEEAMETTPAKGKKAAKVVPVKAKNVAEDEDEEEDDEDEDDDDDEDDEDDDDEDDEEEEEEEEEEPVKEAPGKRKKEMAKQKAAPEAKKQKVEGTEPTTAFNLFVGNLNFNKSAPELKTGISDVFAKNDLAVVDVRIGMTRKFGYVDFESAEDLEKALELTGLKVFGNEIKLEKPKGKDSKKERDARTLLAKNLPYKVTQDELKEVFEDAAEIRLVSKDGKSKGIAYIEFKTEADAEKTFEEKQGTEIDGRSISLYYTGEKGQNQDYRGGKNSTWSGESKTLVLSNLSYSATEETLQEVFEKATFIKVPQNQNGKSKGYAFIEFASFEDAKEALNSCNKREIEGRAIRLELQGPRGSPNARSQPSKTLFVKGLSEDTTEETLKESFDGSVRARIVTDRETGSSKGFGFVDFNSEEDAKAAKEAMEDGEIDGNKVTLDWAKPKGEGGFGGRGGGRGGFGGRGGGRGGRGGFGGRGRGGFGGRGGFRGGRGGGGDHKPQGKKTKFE

Chain of UniProt P09405 (P09405 2-707): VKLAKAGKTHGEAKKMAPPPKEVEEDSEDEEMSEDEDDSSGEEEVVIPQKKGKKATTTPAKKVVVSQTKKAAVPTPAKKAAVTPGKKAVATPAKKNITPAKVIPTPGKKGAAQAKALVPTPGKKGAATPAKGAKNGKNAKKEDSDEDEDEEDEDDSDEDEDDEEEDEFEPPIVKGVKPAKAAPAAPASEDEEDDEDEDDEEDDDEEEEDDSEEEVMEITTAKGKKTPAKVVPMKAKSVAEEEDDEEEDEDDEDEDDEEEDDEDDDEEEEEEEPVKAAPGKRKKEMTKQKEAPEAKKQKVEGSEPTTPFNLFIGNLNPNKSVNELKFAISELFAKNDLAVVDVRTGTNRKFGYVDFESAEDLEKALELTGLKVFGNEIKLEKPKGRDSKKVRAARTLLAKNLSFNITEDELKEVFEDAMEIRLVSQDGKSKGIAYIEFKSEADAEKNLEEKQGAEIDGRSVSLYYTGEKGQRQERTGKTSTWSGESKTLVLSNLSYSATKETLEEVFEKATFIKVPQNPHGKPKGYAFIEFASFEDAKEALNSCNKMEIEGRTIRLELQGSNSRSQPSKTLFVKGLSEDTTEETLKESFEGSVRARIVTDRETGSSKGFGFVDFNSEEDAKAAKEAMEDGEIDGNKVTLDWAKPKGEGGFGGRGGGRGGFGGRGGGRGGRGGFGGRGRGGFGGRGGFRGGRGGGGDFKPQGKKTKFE

- Kd [1]: 33.3 µM
- Kd [2]: 1.3 µM
Substance: IgG1 isotype control antibody
